The values that follow come from patent US20240190960A1 (Chugai, published 2024).

In assay [1] the target is CD3 antibody CE115HA056 (CE115HA056-F760mnP17/GLS3000-k0). Kind of assay: SPR (Biacore), 37 C; ligand antibody captured on SuRe protein A chip (1000 RU), Fab as analyte at 100 nM for 180 s; amount of binding per 1 RU of ligand. Here is the method:
(§1) SuRe protein A (GE Healthcare) prepared at 25 μg/mL using Acetate4.5 (GE Healthcare) was immobilized on sensor chip CM4 at approximately 1000 RU per flow cell using an amine coupling kit (GE Healthcare).
(§2) First, to evaluate the binding specificity of the clamping antibodies, a ligand was reacted at 37° C. for 60 seconds at a flow rate of 10 μL/min to capture 1000 RU, and an analyte prepared at 100 nM was allowed to act for 180 seconds at a flow rate of 30 μL/min, and the amount of binding was measured.

Assay [2] has as its target CD3 antibody CE115HA146 (CE115HA146-F760mnP17/GLS3000-k0). Described as above. Here is the method:
as §1, §2

Assay [3] has as its target CD3 antibody CE115HA000 (CE115HA000-F760mnP17/GLS3000-k0). The description is as above. Here is the method:
as §1, §2

The target in assay [4] is T1, CD3ε epitope-fused GPC3 antibody (hGC33VHGP01-rabCH1hG1m/hGC33VL-rabk).
T1 construct: control for recognition of the peptide alone
T1 sequence (VH, as listed by the source, chain 1 of 2): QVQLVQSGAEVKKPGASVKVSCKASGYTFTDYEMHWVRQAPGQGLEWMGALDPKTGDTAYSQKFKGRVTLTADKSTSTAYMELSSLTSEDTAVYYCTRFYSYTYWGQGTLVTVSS
T1 sequence (VL, as listed by the source, chain 2 of 2): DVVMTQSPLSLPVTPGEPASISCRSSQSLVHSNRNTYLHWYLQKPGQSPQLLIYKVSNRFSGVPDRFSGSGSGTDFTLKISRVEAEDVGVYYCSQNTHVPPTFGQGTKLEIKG
The description is as above. Here is the method: as §1, §2

Assay [5] addresses T2, negative control IC17 (IC17Hdk-F760mnP17/IC17L-k0).
T2 construct: also called anti-KLH antibody
Described as above. Here is the method: as §1, §2

The target in assay [6] is T3, CD3ε epitope-fused CE115HA146 (CE115HAGP13-rabIgG/GLS3000-rabk).
T3 construct: stands for the antigen/antibody complex; Rabbit constant regions; also called CE115HAPG13
T3 sequence (heavy, as listed by the source, chain 1 of 2): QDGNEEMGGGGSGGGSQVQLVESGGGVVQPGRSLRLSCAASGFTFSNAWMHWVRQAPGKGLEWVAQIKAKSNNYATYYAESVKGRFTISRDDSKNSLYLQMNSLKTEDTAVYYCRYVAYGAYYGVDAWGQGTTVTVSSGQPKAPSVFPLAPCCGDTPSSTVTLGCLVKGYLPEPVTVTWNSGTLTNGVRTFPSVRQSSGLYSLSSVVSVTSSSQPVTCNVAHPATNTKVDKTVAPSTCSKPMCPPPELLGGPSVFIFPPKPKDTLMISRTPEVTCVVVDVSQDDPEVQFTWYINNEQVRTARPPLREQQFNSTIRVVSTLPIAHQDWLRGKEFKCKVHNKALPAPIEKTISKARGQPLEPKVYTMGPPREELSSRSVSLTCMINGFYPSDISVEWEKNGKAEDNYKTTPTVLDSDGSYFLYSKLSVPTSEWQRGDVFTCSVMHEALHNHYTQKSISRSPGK
T3 sequence (light, as listed by the source, chain 2 of 2): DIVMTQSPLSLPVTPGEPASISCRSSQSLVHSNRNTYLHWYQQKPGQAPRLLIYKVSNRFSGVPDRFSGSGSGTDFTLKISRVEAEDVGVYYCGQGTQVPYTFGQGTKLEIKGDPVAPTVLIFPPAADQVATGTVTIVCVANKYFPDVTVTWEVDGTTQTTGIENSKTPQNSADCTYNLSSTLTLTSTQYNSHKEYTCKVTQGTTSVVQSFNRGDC
Nature of the assay: SPR (Biacore T200), ligand captured on protein A, Fab 0-400 nM as analyte, 37 C. Here is the method: as §1
(§3) The sensor chip was regenerated by passing Glycine1.5 and 25 mM NaOH, each at a flow rate of 30 μL/min for 15 seconds. The dissociation constant KD (M) was calculated based on the association rate constant ka (1/Ms) and the dissociation rate constant kd (1/s), which are kinetic parameters calculated from the sensorgram obtained by the measurement. Biacore T200 Evaluation Software (GE Healthcare) was used for calculation of each parameter.
A general note: In SPR one partner is held on a chip, and binding of the other changes the refractive index at the surface.

For assay [7], the target named is T4, CD3ε epitope-fused CE115HA056 (CE115HAGP12-rabIgG/GLS3000-rabk).
T4 construct: rabbit constant regions; also called CE115HAPG12
T4 sequence (heavy, as listed by the source, chain 1 of 2): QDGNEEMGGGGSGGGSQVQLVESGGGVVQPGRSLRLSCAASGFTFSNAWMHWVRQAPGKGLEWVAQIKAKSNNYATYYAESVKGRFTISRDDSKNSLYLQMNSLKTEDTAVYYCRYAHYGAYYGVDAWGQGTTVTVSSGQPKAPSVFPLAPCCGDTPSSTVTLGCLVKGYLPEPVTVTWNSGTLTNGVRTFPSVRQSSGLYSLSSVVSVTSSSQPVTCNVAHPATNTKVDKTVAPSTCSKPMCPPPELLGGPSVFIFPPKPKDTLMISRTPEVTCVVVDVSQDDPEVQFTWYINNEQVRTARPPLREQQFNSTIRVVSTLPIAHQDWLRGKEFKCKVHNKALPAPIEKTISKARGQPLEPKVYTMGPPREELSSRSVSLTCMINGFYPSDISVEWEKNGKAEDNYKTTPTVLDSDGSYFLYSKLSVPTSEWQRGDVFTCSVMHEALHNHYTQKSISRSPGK
T4 sequence (light, as listed by the source, chain 2 of 2): as the sequence (light, as listed by the source, chain 2 of 2) above
Described as above. Here is the method:
as §1, §3

The target of assay [8] is T5, Biotinylated human CD3εδ heterodimer (Fc-fused human CD3ε / Fc-fused human CD3δ) (human, biotin on the Avi tag (BirA)).
T5 chain 1: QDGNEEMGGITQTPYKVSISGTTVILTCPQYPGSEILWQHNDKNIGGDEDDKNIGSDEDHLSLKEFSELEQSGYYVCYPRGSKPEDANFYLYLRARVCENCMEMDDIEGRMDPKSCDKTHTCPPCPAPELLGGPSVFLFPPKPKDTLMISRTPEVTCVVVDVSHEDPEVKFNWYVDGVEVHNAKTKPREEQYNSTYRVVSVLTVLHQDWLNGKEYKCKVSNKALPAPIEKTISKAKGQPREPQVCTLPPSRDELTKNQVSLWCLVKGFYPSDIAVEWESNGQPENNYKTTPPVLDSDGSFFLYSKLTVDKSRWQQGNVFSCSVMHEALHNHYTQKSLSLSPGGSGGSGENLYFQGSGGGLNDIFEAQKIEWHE
T5 chain 2: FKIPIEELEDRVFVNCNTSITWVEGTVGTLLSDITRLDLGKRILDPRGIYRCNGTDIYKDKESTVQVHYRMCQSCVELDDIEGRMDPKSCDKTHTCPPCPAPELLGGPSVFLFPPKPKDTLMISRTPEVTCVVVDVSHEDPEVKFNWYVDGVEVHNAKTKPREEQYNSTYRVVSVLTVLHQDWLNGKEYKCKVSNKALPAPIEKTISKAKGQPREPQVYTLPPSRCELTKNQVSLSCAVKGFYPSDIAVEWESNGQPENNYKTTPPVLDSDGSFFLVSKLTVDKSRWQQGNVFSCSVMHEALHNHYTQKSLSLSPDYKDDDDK
Nature of the assay: BLI (Octet RED384); CD3εδ on streptavidin sensor, IC17 one arm for 120 s, then 1 µM Fab in HBS-EP+ for 120 s. Here is the method:
Using an Octet RED 384 (ForteBio), a streptavidin sensor (ForteBio) was reacted with CD3εδ prepared at 0.2 μM in ACES at 37° C. for 300 seconds. […] Response values were extracted every three seconds, and graphs were depicted using Microsoft Excel 2013 (Microsoft).
(In general: BLI is a label-free optical method that tracks binding on a fibre tip over time.)

Sequence of CD3 antibody CE115HA056 (CE115HA056-F760mnP17/GLS3000-k0) (heavy, as listed by the source): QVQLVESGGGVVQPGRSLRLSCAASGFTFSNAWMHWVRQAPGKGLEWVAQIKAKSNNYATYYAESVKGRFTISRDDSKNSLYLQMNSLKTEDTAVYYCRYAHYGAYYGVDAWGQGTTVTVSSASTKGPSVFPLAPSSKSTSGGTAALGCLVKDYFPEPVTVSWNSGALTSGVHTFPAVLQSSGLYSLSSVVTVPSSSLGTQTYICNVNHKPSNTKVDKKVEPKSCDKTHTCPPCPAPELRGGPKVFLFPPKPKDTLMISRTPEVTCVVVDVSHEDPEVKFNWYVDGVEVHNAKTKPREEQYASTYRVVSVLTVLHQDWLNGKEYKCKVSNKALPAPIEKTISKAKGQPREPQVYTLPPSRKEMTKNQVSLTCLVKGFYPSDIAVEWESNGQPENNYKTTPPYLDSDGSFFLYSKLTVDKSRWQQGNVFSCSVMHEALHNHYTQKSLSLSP
Sequence of CD3 antibody CE115HA000 (CE115HA000-F760mnP17/GLS3000-k0) (VH, as listed by the source, chain 1 of 2): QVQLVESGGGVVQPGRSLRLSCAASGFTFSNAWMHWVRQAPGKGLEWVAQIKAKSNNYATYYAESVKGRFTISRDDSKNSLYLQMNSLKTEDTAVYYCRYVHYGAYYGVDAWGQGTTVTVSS
Sequence of CD3 antibody CE115HA000 (CE115HA000-F760mnP17/GLS3000-k0) (VL, as listed by the source, chain 2 of 2): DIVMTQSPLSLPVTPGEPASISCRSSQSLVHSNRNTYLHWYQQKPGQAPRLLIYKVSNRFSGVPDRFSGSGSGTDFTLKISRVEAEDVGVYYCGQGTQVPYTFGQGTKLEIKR
Sequence of CD3 antibody CE115HA146 (CE115HA146-F760mnP17/GLS3000-k0) (heavy, as listed by the source): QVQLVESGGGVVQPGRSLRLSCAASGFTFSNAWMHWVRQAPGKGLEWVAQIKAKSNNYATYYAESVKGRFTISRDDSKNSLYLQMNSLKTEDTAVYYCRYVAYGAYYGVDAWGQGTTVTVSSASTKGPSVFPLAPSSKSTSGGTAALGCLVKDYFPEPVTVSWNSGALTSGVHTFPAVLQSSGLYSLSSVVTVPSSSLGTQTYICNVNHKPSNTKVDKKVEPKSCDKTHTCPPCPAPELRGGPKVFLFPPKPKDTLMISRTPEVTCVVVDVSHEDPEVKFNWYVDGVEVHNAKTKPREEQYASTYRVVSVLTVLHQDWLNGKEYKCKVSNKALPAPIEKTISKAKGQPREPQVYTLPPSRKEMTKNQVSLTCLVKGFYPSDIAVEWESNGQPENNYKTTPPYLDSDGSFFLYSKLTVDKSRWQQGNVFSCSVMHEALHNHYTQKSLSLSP

B1: CLA0334 Fab fragment (from CLA0334VH-F760mnP17/CLA0334VL-k0C) (Fab, V domains shown)
VH: QEQLEESGGDLVKPEGSLTLTCTASGFSLSVSYWICWVRQAPGKGLEWIACIYAGSTGSTWYANWAKGRFTISKTSSTTVTLQMTSLTAADTATYFCARDSGWNAFDLWGPGTLVTVSS
VL: DVVMTQTPASVSAAVGGTVTIKCQASQSIGSNLAWYQQKSGHPPNLLIYEASGLASGVPLRFSGSGSGTQFTLTISDLECADAATYYCQSYYYSPSVSVHYAFGGGTEVVVKR
notes: Fab prepared from the full antibody with the Pierce Fab Preparation Kit; also called clamping antibody CLA0334
As to B1, the binding result in assay [1] is recorded as “no binding (tested: 100 nM)”; in assay [2], “no binding (tested: 100 nM)”; in assay [3], “no binding (tested: 100 nM)”; in assay [4] it was “no binding (tested: 100 nM)”; in assay [5], “no binding (tested: 100 nM)”; in assay [8] it was “no binding (tested: 1 µM)”. Besides, the Kd worked out at 150 nM in assay [6] and 110 nM in assay [7].

As a reminder, the Kd is the equilibrium constant for the complex coming apart. Low values mean a tighter complex, high ones a looser complex.
